From patent US20130251707A1 come the findings set out here.

By Kd is commonly meant the concentration at which binding is half-saturated. A higher Kd goes with weaker binding. In general, koff refers to the rate constant with which the complex falls apart. The low end stands for slow dissociation, the high end for fast dissociation. For orientation: kon means the rate constant with which the complex forms. A low value points to slow association.

In this assay the target is human TNFR1-Fc (human) (UniProt P19438). Nature of the assay: quartz crystal microbalance, TNFR1-Fc immobilized.
Sequence of human TNFR1-Fc (human) (P19438 29-211 limits assumed): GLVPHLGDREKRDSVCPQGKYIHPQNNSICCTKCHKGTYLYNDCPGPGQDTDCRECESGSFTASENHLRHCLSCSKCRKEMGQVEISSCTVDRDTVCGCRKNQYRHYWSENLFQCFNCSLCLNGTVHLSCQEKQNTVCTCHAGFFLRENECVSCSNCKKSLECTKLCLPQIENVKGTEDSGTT

B1: scFv IZI-06.1 (scFv, V domains shown, part only)
VH: QVQLVQSGAEVKKPGSSVKVSCKASGYTFTDFYINWVRQAPGQGLEWIGEIYPYSGHAYYNEKFKARVTITADKSTSTAYMELSSLRSEDTAVYYCARWDFLDYWGQGTTVTVSS
VL: DIVMTQSPLSLPVTPGEPASISCRSSQSLLHSNGNTYLHWYLQKPGQSPQLLIYTVSNRFSGVPDRFSGSGSGTDFTLKISRVEAEDVGVYYCSQSTHVPYTFGGGTKVEIKR
modifications: linker and tags not stated
Take B1: the Kd amounted to 2.2 nM; the fold reduced affinity (against ATROSAB and H398) came to 10 fold; the koff came out at 0.00076 s⁻¹; the kon stood at 350000 M⁻¹ s⁻¹.
